Measurements published in patent publication US20240317826A1, “COMPOSITIONS AND METHODS FOR TREATING AND/OR I[…] AGENT FOR TREATING HIV-1 INFECTIONS” (priority 2021, published 2024).

Legend:
GST-SAP18 = GST-SAP18 (UniProt O00422); assay: GST pull-down, bound protein quantitated from Western blot (FIG. 15c)
GST-INI1 = GST-INI1 (UniProt Q12824); assay: as above
[1] = target: GST-CTD (C-terminal domain of HIV-1 integrase, aa 201-288, GST fusion) (HIV-1 (Hx3B)) (UniProt P04585); assay: Alpha; GST-CTD 0.083 uM
[2] = target: GST-CTD (C-terminal domain of HIV-1 integrase, aa 201-288, GST fusion) (HIV-1 (Hx3B)) (UniProt P04585); assay: Alpha; GST-CTD 0.027 uM

Chain of GST-SAP18 (O00422 whole entry): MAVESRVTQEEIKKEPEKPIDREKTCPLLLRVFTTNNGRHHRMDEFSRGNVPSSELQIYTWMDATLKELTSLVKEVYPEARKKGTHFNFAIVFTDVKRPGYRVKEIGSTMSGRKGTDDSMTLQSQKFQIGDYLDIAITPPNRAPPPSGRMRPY

Substance	% binding (GST-SAP18) [%]	% binding (GST-INI1) [%]	Kd [1] [nM]	Kd [2] [nM]
His6-IN(W235E) (enzyme)	20	< 5	–	–
His6-SUMO-INI1183-304 (from UniProt Q12824 183-304)	–	–	3	3.5
